Data on two molecules can be found in patent US20160200782A1 (MOERAE MATRIX, published 2016).

What all share (assay): cell-based or functional assay
For experiment [1], the target named is BTK(R28H)(h) (human, UniProt Q06187 1-659).
Experiment [2] concerns the target SAPK2a(h) (human, UniProt Q16539 1-360).
Experiment [3] has as its target IR(h) (human, UniProt P06213 1005-1310, limits assumed).
Experiment [4] has as its target IR(h), activated (human, UniProt P06213 1005-1310, limits assumed).
The target of experiment [5] is MSK2(h) (human, UniProt O75676 1-772, limits assumed).
Experiment [6] addresses T1, PrKX(h) (human, UniProt P51817 1-358).
T1 sequence (looked up): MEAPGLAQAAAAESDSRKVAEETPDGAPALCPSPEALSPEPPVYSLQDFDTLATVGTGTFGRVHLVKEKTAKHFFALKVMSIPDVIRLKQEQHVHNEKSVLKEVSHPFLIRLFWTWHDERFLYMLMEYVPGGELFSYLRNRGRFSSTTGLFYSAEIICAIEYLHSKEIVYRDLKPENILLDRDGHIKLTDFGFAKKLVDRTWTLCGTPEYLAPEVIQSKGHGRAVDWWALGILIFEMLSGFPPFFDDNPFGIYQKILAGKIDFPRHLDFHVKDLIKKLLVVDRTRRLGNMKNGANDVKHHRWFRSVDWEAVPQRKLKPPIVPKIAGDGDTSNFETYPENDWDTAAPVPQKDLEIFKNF

The target of experiment [7] is LOK(h) (human, UniProt O94804 1-348, limits assumed).
Experiment [8] addresses GSK3α(h) (human, UniProt P49840 1-483).
The target in experiment [9] is cKit(V654A)(h) (human, UniProt P10721 544-976, limits assumed).
Experiment [10] deals with CDK6/cyclinD3(h) (human, UniProt Q00534 1-326; P30281 1-292).
Experiment [11] deals with T2, SGK3(h) (human, UniProt Q96BR1 1-496, limits assumed).
T2 sequence (looked up): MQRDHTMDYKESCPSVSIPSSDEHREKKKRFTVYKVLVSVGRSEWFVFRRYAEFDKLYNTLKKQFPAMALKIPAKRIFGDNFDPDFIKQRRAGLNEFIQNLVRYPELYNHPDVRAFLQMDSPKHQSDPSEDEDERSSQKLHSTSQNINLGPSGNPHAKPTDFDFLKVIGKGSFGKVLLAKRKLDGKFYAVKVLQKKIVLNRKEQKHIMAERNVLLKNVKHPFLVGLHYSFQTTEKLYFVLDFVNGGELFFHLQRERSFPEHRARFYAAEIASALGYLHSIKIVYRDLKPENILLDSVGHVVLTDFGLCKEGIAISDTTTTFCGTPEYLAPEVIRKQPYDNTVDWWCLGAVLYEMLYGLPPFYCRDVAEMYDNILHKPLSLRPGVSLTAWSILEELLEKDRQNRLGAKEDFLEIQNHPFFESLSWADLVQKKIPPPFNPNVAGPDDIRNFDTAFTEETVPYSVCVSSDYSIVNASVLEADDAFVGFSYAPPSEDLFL

Experiment [12] has as its target ZIPK(h) (human, UniProt O43293 1-454, limits assumed).
Experiment [13] has as its target T3, CHK1(h) (human, UniProt O14757 1-476).
T3 sequence (looked up): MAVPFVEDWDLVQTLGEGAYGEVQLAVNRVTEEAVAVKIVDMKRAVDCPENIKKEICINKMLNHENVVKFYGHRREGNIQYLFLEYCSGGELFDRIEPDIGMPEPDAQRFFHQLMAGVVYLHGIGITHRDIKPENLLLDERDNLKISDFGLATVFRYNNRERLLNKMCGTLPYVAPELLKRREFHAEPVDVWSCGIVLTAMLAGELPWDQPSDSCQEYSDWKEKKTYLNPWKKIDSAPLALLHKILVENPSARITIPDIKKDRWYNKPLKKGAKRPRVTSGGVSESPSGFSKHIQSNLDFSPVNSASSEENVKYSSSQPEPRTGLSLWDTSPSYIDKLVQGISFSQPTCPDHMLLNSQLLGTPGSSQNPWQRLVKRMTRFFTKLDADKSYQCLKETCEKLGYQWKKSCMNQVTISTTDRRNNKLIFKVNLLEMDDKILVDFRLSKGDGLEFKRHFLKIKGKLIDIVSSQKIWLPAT

Experiment [14] concerns the target T4, MKK6(h) (human, UniProt P52564 1-334, limits assumed).
T4 sequence (looked up): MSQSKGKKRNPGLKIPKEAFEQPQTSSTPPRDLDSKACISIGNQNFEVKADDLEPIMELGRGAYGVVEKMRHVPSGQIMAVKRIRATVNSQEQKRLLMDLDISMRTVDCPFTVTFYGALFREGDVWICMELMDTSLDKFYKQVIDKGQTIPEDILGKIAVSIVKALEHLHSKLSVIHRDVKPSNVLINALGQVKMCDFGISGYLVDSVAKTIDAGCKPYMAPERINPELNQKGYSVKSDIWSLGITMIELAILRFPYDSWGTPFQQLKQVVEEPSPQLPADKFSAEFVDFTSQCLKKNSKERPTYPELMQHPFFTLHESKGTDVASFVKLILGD

Experiment [15] concerns the target Src(1-530)(h) (human, UniProt P12931 1-530).
Note: test concentration or dose not given here.

Chain of IR(h) (P06213 1005-1310 limits assumed): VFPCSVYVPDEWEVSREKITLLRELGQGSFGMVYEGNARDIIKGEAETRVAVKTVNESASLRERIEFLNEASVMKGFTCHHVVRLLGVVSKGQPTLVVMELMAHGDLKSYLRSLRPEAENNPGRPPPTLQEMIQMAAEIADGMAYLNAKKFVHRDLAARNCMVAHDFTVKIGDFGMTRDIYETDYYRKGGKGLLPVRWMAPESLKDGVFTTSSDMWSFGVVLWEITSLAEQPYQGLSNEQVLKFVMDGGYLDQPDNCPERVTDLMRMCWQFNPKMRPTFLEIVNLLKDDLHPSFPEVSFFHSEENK
Chain of IR(h), activated (P06213 1005-1310 limits assumed): as above
Chain of MSK2(h) (O75676 whole entry): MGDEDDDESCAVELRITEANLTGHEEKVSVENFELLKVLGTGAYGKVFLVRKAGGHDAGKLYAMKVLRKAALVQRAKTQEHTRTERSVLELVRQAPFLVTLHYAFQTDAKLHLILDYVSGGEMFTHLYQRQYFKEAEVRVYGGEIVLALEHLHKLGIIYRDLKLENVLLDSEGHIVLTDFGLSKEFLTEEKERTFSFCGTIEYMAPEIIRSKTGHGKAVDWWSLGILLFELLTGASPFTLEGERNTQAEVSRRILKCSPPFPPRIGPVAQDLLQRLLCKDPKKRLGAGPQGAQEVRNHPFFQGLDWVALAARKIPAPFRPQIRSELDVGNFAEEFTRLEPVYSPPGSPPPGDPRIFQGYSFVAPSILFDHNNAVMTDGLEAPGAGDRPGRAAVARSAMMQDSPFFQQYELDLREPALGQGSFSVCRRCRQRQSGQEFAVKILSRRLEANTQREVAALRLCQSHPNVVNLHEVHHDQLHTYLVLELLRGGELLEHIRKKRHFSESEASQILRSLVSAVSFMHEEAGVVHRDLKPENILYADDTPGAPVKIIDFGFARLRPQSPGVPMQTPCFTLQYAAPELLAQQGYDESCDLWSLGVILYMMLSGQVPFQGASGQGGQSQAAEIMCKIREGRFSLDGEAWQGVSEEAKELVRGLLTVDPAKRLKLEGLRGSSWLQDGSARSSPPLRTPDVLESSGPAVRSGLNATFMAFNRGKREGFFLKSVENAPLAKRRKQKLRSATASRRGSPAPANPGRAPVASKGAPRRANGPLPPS
Chain of LOK(h) (O94804 1-348 limits assumed): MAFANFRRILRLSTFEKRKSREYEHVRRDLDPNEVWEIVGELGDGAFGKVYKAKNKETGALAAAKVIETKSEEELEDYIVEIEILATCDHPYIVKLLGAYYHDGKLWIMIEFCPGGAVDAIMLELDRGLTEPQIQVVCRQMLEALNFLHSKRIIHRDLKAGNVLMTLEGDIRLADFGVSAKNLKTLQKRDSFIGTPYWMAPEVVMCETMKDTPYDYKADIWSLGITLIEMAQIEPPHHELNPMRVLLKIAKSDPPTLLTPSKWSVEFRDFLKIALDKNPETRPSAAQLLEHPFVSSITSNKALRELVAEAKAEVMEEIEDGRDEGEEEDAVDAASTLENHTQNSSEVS
Chain of CDK6/cyclinD3(h) (Q00534 whole entry, chain 1 of 2): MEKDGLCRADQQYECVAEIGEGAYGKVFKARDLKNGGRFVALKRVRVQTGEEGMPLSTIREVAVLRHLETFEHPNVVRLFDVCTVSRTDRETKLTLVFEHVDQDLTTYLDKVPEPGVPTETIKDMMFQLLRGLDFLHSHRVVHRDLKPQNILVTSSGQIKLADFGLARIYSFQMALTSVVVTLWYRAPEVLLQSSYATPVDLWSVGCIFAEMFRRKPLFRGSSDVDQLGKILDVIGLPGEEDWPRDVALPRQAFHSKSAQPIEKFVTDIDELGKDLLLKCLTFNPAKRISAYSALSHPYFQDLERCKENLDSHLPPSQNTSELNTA
Chain of CDK6/cyclinD3(h) (P30281 whole entry, chain 2 of 2): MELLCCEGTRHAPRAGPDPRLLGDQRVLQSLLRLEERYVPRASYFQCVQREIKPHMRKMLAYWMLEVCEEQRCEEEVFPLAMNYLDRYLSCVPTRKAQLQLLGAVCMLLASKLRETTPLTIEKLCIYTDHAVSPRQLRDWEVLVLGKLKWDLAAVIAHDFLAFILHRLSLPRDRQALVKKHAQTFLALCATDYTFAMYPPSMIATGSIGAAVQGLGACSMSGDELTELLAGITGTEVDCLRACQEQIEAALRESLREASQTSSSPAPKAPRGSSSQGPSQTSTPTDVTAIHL
Chain of GSK3α(h) (P49840 whole entry): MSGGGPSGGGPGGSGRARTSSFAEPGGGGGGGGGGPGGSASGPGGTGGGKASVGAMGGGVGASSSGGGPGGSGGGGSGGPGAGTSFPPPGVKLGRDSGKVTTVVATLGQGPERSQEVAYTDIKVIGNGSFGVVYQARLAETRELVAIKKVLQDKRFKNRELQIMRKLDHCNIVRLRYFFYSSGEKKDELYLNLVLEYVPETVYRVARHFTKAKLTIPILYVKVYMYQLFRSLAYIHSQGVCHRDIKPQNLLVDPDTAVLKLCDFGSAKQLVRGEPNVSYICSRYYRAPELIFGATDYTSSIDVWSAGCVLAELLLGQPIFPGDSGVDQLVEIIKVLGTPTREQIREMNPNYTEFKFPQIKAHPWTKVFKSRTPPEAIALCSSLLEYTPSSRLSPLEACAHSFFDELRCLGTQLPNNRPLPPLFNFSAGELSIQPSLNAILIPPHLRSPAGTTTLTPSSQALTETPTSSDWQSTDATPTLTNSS
Chain of cKit(V654A)(h) (P10721 544-976 V654A limits assumed): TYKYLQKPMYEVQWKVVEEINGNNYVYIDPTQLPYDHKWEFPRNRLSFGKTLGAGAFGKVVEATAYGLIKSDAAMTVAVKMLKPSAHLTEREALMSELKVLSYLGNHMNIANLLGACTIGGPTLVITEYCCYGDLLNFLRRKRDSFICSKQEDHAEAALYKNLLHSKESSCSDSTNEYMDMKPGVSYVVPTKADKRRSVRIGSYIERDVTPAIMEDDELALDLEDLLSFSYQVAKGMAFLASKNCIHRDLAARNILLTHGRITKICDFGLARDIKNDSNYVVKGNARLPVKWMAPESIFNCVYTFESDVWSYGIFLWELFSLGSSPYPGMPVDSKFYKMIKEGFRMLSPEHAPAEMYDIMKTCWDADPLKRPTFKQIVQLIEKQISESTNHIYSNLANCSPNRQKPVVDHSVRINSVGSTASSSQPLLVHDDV
Chain of SAPK2a(h) (Q16539 whole entry): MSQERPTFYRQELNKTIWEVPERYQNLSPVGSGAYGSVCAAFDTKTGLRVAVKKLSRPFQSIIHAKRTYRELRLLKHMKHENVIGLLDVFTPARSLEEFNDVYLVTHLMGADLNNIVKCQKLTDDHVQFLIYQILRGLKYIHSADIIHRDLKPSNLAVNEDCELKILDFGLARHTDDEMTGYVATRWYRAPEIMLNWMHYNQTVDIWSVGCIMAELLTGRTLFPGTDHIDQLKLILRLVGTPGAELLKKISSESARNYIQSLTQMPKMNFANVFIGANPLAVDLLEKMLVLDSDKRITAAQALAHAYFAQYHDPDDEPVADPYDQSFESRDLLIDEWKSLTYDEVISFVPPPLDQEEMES
Chain of ZIPK(h) (O43293 whole entry): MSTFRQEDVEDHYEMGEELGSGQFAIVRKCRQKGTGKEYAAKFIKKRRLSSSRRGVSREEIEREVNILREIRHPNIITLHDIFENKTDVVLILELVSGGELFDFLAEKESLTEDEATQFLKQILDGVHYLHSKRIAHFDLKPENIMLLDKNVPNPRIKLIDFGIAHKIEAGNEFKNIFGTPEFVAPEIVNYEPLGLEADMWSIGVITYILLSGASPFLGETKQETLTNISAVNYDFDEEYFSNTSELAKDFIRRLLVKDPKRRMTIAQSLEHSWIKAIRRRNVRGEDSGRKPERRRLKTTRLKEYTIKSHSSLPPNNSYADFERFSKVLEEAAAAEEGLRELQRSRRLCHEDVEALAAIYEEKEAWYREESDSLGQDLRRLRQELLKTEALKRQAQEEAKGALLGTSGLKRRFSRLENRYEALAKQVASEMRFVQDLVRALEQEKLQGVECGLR
Chain of BTK(R28H)(h) (Q06187 whole entry R28H): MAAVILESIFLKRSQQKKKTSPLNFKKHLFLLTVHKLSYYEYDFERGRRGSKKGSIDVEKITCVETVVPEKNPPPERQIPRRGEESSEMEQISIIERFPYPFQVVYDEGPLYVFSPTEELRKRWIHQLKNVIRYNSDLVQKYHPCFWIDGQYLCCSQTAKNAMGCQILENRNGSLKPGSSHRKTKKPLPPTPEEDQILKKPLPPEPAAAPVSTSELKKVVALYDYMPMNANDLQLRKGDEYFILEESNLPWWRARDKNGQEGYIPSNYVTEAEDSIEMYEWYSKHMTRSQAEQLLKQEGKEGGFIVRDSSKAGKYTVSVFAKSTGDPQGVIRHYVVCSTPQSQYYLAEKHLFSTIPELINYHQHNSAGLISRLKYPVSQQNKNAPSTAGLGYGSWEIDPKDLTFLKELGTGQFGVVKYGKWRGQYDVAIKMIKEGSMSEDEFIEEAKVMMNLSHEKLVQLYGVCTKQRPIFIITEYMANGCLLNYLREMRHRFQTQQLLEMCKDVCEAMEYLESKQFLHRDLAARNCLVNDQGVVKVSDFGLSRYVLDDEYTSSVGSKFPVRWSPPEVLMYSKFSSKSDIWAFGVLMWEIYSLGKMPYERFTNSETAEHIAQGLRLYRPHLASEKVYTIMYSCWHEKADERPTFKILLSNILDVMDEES

B1: MMI-0400 (peptide)
peptide: KAFAKLAARLYRKALARQLGVAA
B1: the “% activity” value was found to be 24% in experiment [1]; 85% in experiment [2]; 85% in experiment [3]; 59% in experiment [4]; 52% in [5]; 76% in experiment [6]. The “% activity” value came out at 18% in experiment [7]; 164% in [8]; 150% in experiment [9]; 85% in experiment [10]; 8% in experiment [11]; 13% in experiment [12]. Also, the “% activity” value in experiment [13] is 87%; in experiment [14], 44%; in [15], 19%.

B2: MMI-0300 (peptide)
peptide: FAKLAARLYRKALARQLGVAA
Consider B2, for which the “% activity” value in experiment [1] came to 74%; in experiment [2], 90%; in experiment [3], 96%; in experiment [4], 79%; in [5] it was 56%; in experiment [6], 61%. The “% activity” value in [7] amounted to 37%; in experiment [8] it was 157%; in experiment [9] it was 134%; in experiment [10], 86%; in experiment [11] it was 10%; in [12], 28%. The “% activity” value in experiment [13] was found to be 91%; in experiment [14], 48%; in experiment [15] it was 23%.
